Measurements reported in article PMC8108516 (Molecular Biology of the Cell, 2021).

Legend:
Assay in all cases: pull-down
[1] = molecular target: T1, GST tagged Pom1^aa605-1087 (S. pombe, UniProt Q09690 605-1087)
T1 sequence (looked up): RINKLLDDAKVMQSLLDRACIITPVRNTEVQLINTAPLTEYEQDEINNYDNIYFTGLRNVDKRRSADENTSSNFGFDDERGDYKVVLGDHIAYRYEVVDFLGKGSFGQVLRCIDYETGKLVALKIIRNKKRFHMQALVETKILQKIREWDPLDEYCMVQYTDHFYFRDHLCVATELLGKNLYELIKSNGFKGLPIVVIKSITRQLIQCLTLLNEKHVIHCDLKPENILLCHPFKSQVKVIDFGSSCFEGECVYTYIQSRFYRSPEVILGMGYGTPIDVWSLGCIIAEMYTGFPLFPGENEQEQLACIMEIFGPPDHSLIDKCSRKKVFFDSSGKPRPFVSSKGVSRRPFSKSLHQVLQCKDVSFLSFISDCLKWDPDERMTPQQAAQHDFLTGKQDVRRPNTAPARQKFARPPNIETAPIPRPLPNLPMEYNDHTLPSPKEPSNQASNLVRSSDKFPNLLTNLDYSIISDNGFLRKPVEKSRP

[2] = molecular target: T2, GST tagged Pom1^Δaa305N (S. pombe, UniProt Q09690 306-1087)
T2 sequence (looked up): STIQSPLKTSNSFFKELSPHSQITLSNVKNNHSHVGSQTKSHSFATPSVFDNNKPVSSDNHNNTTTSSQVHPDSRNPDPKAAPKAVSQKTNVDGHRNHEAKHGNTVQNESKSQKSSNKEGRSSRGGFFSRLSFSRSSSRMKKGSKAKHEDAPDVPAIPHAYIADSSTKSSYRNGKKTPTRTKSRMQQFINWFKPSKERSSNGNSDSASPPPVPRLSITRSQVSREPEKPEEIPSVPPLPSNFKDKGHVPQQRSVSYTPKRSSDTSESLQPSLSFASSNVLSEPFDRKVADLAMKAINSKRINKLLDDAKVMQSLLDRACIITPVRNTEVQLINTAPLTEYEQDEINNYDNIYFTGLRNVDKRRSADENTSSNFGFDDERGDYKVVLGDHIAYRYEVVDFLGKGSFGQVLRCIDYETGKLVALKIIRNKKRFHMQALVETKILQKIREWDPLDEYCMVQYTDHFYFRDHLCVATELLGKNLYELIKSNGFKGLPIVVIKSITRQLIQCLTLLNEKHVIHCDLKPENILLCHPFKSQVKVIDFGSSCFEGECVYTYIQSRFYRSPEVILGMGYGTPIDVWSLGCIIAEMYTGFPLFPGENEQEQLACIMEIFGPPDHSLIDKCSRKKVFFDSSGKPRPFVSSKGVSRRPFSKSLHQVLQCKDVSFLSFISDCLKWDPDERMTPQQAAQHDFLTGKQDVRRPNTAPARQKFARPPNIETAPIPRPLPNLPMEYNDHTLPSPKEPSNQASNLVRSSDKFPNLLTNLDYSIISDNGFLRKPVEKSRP

[3] = molecular target: T3, GST tagged Pom1^FL (S. pombe, UniProt Q09690 1-1087)
T3 sequence (looked up): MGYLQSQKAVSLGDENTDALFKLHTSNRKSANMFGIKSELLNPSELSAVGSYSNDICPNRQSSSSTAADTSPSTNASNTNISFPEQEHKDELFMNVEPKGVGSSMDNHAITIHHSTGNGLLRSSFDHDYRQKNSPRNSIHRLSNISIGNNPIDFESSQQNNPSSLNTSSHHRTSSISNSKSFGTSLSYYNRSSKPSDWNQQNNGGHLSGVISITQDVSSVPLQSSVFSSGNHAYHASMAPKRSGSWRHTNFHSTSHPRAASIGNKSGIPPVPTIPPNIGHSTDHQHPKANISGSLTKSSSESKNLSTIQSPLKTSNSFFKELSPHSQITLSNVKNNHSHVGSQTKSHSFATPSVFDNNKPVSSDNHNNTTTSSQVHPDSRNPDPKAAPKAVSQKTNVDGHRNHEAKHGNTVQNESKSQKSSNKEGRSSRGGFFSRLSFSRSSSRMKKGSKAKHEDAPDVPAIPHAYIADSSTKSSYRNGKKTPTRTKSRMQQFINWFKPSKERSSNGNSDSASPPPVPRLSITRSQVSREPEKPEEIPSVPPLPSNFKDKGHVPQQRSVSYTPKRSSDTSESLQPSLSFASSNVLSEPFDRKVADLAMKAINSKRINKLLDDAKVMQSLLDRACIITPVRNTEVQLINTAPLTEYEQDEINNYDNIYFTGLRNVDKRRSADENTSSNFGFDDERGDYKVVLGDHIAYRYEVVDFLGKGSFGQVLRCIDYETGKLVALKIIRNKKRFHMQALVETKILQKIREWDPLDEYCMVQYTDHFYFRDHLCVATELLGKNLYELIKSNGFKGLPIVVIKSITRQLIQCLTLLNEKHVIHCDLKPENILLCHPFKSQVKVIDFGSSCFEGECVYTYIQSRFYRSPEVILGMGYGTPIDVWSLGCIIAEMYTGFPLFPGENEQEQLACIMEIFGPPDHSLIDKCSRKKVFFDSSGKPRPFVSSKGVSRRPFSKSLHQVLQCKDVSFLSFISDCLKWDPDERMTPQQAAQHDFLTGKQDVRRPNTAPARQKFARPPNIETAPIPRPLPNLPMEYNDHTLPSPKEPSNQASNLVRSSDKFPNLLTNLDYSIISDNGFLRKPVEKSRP

Measured: binding result

B1: MBP-tagged Ptc1^FL (enzyme, S. pombe, UniProt P40371 1-347, looked up)
chain: MKGSHPNAGSLLEPLHKLNPFSENSTSGHRKNASDHSADGETRPIAIEMKDSKGNTVPVGNSRPSKASNWLAGLMEDKNQRWRRSMEDTHICLYDFGGNQDDGFVAVYDGHAGIQASDYCQKNLHKVLLEKVRNEPDRLVTDLMDETFVEVNSKIAKATHNDICGCTAAVAFFRYEKNRTRRVLYTANAGDARIVLCRDGKAIRLSYDHKGSDANESRRVTQLGGLMVQNRINGVLAVTRALGDTYLKELVSAHPFTTETRIWNGHDEFFIIACDGLWDVVSDQEAVDFVRNFVSPREAAVRLVEFALKRLSTDNITCIVVNLTRNPGDLDDSGLTADNDSYSNDYY
binds: all assays above
